Holding throughout (details): both partners purified
The target of one assay is T1, FI6-focused_03 (synthetic design on Bacteroides …).
T1 construct: also called FI6-focused design_03; design_03 scaffold; source: E. coli BL21 (DE3), purified (Ni-NTA, SEC)
T1 chain: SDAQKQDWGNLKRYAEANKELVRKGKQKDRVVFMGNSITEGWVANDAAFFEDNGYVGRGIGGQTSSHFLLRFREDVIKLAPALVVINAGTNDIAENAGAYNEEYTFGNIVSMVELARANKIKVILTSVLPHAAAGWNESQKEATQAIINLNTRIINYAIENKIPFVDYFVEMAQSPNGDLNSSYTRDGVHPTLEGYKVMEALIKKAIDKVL
Kind of assay: SPR. (Surface plasmon resonance follows binding to a sensor surface in real time, without labels.)

Another assay concerns the target T2, stem-mimetic_01 (synthetic design on Mus musculus ApoE …, chimera).
T2 construct: source: E. coli BL21 (DE3), purified (Ni-NTA, SEC)
T2 chain: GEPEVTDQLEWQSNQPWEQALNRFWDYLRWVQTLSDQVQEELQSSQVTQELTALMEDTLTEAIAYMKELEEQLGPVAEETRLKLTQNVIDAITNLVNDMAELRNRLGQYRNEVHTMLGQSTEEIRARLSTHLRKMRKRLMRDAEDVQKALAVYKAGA
As to the kind of experiment: SPR; Biacore 8K, HBS-EP+; ligand on a CM5 chip by amine coupling, named FI6 Fab in the legend of Figure 2A and 2D (the methods say IgG); monomeric design as analyte (62.5 nM to 7.8 nM for FI6-focused_04; 5 μM to 312.5 nM for stem-mimetic_01); 1:1 Langmuir fit.

The target in another assay is T3, FI6-focused_04 (synthetic design on Bacteroides …).
T3 construct: also called FI6-focused design_04; FI6-focused design; source: E. coli BL21 (DE3), purified (Ni-NTA, SEC)
T3 chain: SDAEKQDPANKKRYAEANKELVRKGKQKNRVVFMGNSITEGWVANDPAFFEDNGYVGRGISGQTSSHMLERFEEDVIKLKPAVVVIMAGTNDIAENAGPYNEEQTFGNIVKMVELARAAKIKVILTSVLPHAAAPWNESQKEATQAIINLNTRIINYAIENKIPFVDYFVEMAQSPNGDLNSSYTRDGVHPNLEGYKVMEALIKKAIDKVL
Described as above.

B1: FI6 antibody (IgG) (antibody, V domains shown)
VH: QVQLVESGGGVVQPGRSLRLSCAASGFTFSTYAMHWVRQAPGKGLEWVAVISYDANYKYYADSVKGRFTISRDNSKNTLYLQMNSLRAEDTAVYYCAKDSQLRSLLYFEWLSQGYFDYWGQGTLVTVSS
VL: DIVMTQSPDSLAVSLGERATINCKSSQSVTFNYKNYLAWYQQKPGQPPKLLIYWASTRESGVPDRFSGSGSGTDFTLTISSLQAEDVAVYYCQQHYRTPPTFGQGTVEIK
notes: also called FI6 Ab; source: Expi293, purified (protein A, SEC)
Usually Kd stands for the constant that tells how readily two partners part at equilibrium. Read a low Kd as tighter binding. In the assay with FI6-focused_03, B1 yielded a Kd of 0.26 nM.

B2: FI6 Fab (Fab, V domains shown)
VH: QVQLVESGGGVVQPGRSLRLSCAASGFTFSTYAMHWVRQAPGKGLEWVAVISYDANYKYYADSVKGRFTISRDNSKNTLYLQMNSLRAEDTAVYYCAKDSQLRSLLYFEWLSQGYFDYWGQGTLVTVSS
VL: DIVMTQSPDSLAVSLGERATINCKSSQSVTFNYKNYLAWYQQKPGQPPKLLIYWASTRESGVPDRFSGSGSGTDFTLTISSLQAEDVAVYYCQQHYRTPPTFGQGTVEIK
Turning to B2, the Kd amounted to 44 nM in the assay with stem-mimetic_01 and 6 nM in the assay with FI6-focused_04.

The values are drawn from paper doi:10.1101/2025.01.22.634229, “Computationally designed stem-epitope mimetics elicit broadly reactive antibodies” (bioRxiv, 2025).
